# Measured values taken from article PMC8064835 (Cell, 2021).
# B1: BG10–19 IgG1 (antibody, V domains shown)
# VH: EVQLVQSGAEVKKPGESLKISCKGSGYSFTSYWIGWVRQMPGKGLEWMGVIYPGDSDTRYSPSFQGQVTISADKSISTAYLQWSSLKASDTAMYYCARTQWGYNYGSHFFYMDVWGKGTTVTVSS
# VL: QSVLTQPPSASGTPGQRVTISCSGSSSNIGSDHVYWYQQLPGTAPKLFIYRNNQRPSGVPDRFSGSKSGTSASLAISGLRSEDEADYYCAAWDASLSGYVFGTGTKVTVL
# B2: BG10–19 Fab (Fab, V domains shown)
# VH: B1 VH
# VL: B1 VL
# B3: BG4–25 Fab (Fab, V domains shown)
# VH: EVQLVESGGGLIQPGGSLRLSCAASGITVVRNYMTWVRQAPGKGLEWVSVIYSGGTTYYADSVKGRFTISRDNSKNTMYLQMNSLRAEDTAIYYCARDLEVVGAMDVWGQGTTVTVSS
# VL: EIVLTQSPGTLSLSPGERATLSCRASQSVPSSYLAWYQQKPGQAPRLLIYGASSRATGIPDRFSGSGSGTDFTLTISRLEPEDFAVYYCQQYGSPMYTFGQGTKLEIK
# B4: BG4–14 IgG1 (antibody, V domains shown)
# VH: not shown
# VL: QSALTQPASVSGSPGQSITISCTGTSSDVGSYNLVSWYQHHPGKAPKLMIYEVSKRPSGVSNRFSGSKSGNTASLTISGLQAEDETDYYCCSYAGSSTLVFGGGTKLTVL
# How the values were obtained:
# [1] = target: T1, SARS-CoV-2 receptor-binding domain (RBD) (SARS-CoV-2, UniProt P0DTC2); test: ELISA
# [2] = target: T1, SARS-CoV-2 receptor-binding domain (RBD); test: crystal structure
Binder,binding result [1],binding result [2]
B1,binds,
B2,binds,
B3,,binds
B4,binds,
